Laboratory results: the supplement of paper PMC10567573

B1: VDR (parent)
chain: VTLELSQLSMLPHLADLVSYSIQK
B2: DLC1 (parent)
chain: RDAIEALCRRLNTLNKCAVMKLEI

Variants of: B1
Assay: protein stability index of a GFP-peptide fusion (GPS, HEK-293T) (PSI 1-6); higher = more stable
Conditions: c terminus: a fixed tail appended
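Further: lentivirally expressed fusions sorted by FACS into six bins by GFP to DsRed ratio, PSI derived from sequencing read proportions per bin multiplied by bin number.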

Protein stability index, by site and new letter:
L3: M 3.15; T 1.97; G 2.67; P 2.49; N 1.5; C 1.99; A 2.21; R 1.53; W 4.09; Y 2.81; Q 1.96; K 1.16; E 1.84; S 1.5; H 1.6; F 1.95; V 2.45; I 2.53; D 2.09
L5: A 2.12; C 2.54; H 2.33; I 3.82; G 2.07; K 1.85; E 1.71; D 2.1
T2: F 3.02; H 2.06; P 1.42; C 4.12; V 3.63; E 2.22; W 2.48; K 2.4; G 1.76; L 1.75; R 4.52; M 2.16; N 3.11; S 3.12; Q 2.22; I 4.5; D 1.6
V1: W 2.08; L 4.07; Y 2.2; M 2.18; P 1.58; E 1.9; R 3.03; H 2.44; T 3; A 1.63; S 1.99; D 2.29; F 2.61; N 1.81; Q 2.66; K 1.86; G 2.5
E4: T 2.67; K 3.75; D 3.44; H 2.02; M 3.22; C 3.83; L 4.64; R 3.12; P 3.67; F 2.88; I 3.27; A 2.69; Y 2.58; N 2.66; V 3.1; G 2.6; Q 3.55

Variants of: B2
Assay: as above
Conditions: c terminus: a fixed tail appended

Protein stability index, by site and new letter:
M20: H 3.39; K 1.49; Q 1.45; A 1.01; P 2.02; F 3.51; N 1.88; G 1.85; E 1.49; T 2.35; C 2.27; R 1.27; D 1.67; S 2.64
C8: T 1.46; N 2.35; W 4.11; H 2.7; L 2.33; M 3.9; D 2; F 2.82; Q 1.07; V 2.73; K 1.84; I 4.17; A 2.37; G 3.13; S 1.39; R 1.41; Y 3.24; P 2.04
R10: L 2.43; V 1.86; F 1.86; T 3.17; W 2.52; I 4.62; M 3.3; H 3.54; Y 2.21; P 2.71; N 4.43; S 3.43; Q 3.82; C 3.31; K 3.44; A 2.67
N15: K 2.63; F 3.09; Q 5.09; T 1.98; Y 1.24; D 3.27; A 3.2; G 2.33; H 2.39; V 3.72; I 3.36; E 1.44; P 1.75; L 3.76
R9: L 1.63; Q 4.01; H 3.54; S 4.18; T 2.37; C 3.38; F 2.45; G 1.83; D 2.25; E 4.07; V 2.69; I 1.79; N 3.68; K 1.69
L7: Q 2.41; Y 1.81; H 1.31; R 2.13; V 2.36; K 2.16; T 2.46; M 3.54; N 2.5; S 1.78; P 2.31
A18: F 4.02; C 2.83; Q 2.02; D 2.78; H 2.23; R 1.07; E 2.7; P 1.82; W 2.66; I 3.66; Y 3.01; L 2.58; V 3.7
E23: Y 1.36; N 3.12; G 2.23; W 3.37; H 2.39; Q 4.6; F 2.3; K 2.65; I 1.47; C 2.07; A 2.38; P 2.27; D 1.52
K16: A 2.39; M 2.58; G 3.19; V 2.29; E 2.45; D 1.76; N 2.96; C 2.44; F 3.89; W 2.25; I 1.93; L 1.48; T 2.71; Q 3.29
L11: T 2.52; F 2.72; W 2.05; P 2.84; E 1.84; Y 2.67; K 2.96; N 2.33; R 1.89; C 3.62; D 3.27; Q 2.56; S 3.62; H 1.6
K21: Y 2.5; G 1.97; A 2.6; N 1.61; Q 4.24; T 2.06; M 1.69; S 1.73; R 2.88; I 2.1; L 2.53; E 1.73; C 1.39; P 1.33
L14: E 2.98; A 1.68; Q 2.24; Y 3.26; W 2.22; S 3.43; K 1.88; M 1.49; H 2.74; D 1.37; V 2.93; I 4.47; P 2.09; C 2.35
N12: S 1.77; M 1.84; E 1.84; F 2.97; H 2.28; C 3.35; Q 1.45; R 1.79; V 2.37; P 2.26; T 2.2; D 4.53; A 1.09; Y 3.36; K 2.79; L 2.99
C17: I 3.57; N 1.83; H 4.06; Y 3.7; S 2.17; P 1.07; V 4.14; L 2.35; D 3.14; K 2.36; A 1.16; R 1.78; E 2; T 3.57; M 1.63; Q 1.42
L22: S 1.45; H 1.44; N 1.54; C 2.69; G 1.5; D 1.5; Y 2.29; K 1.91; E 1.93; P 1.43; I 1.89; M 3.06; T 2.54; Q 2.59
I24: W 1.66; Y 1.29; V 2.45; N 1.63; S 1.91; H 1.73; F 2.04; L 2.75; G 1.13; Q 1.75; R 1.5; T 2.21; M 2.39; K 1.87; D 1.52; C 3.03; A 1.18; E 1.36; P 1.71
V19: H 3.85; Q 1.84; N 1.89; A 3.74; Y 2.76; G 1.6; F 1.62; L 3.2; I 1.67; W 3.62; T 1.04; D 2.58
T13: Y 2.79; L 2.33; N 2.28; I 2.04; C 2.26; E 1.7; S 2.09; K 1.55; R 2.35; H 2.02
